From patent US20120071629A1, “APPOPTOSIN AND USES THEREOF FOR TREATING NEURODEGENERATIVE DISEASE AND CANCER” (Tsinghua University, priority 2006, published 2012)

B1: 118-304AA: deletion mutant of myc-168, amino acids 118-304 (protein)
chain: GHPPTALESVMLGVGSRSVAGVCMSPITVIKTRYESGKYGYESIYAALRSIYHSEGHRGLFSGLTATLLRDAPFSGIYLMFYNQTKNIVPHDQVDATLIPITNFSCGIFAGILASLVTQPAGVIKTHMQLYPLKFQWIGQAVTLIFKDYGLRGFFQGGIPRALRRTLMAAMAWTVYEEMMAKMGLKS
modifications: left off: small tags and cut ends
B2: 168: Appoptosin polypeptide; human amino acid sequence SEQ ID NO:2; expressed in cells by transfection (protein)
chain: MIQNSRPSLLQPQDVGDTVETLMLHPVIKAFLCGSISGTCSTLLFQPLDLLKTRLQTLQPSDHGSRRVGMLAVLLKVVRTESLLGLWKGMSPSIVRCVPGVGIYFGTLYSLKQYFLRGHPPTALESVMLGVGSRSVAGVCMSPITVIKTRYESGKYGYESIYAALRSIYHSEGHRGLFSGLTATLLRDAPFSGIYLMFYNQTKNIVPHDQVDATLIPITNFSCGIFAGILASLVTQPAGVIKTHMQLYPLKFQWIGQAVTLIFKDYGLRGFFQGGIPRALRRTLMAAMAWTVYEEMMAKMGLKS
modifications: Description of Artficial Sequence note = synthetic construct
notes: Appoptosin polypeptide; expressed in cells by transfection

Experiments:
N2a cells = test: BH3I- and staurosporine-induced caspase 3 cleavage/activation; format: cell-based
Procedure: N2a cells were first subjected to downregulation of 168 by RNAi, and were then treated with apoptotic reagents BH3I and staurosporine. […] In addition, 168 is subjected to cleavage under apoptotic treatments (indicated by *).

APP = molecular target: T1, APP (Homo sapiens, UniProt P05067); test: Anti-APP (369) IP and anti-myc Western blot in co-transfected 293T cells; format: binding; details: myc-168 or deletion mutants co-transfected with APP into 293T cells
T1 construct: expressed in transfected cells; host or cells: 293T cells
From the text: Protein expressions are shown in the middle and lower panels.
Deletion mutants of myc-168 and APP were co-transfected into 293T cells and cell lysates subjected to anti-APP (369) IP and anti-myc WB to detect 168-APP interaction (upper panel).

[1] = test system: N2a cells stably expressing human APP695; test: Aβ generation and APP metabolism, IP and Western blot; format: cell-based
From the text: (§1) N2a cells stably expressing human APP695 were transfected with NotchΔE-myc(Notch lacking its ectodomain and carrying a myc tag at its C-terminus) for 1 day. Cells were split equally and transfected with 168 with different dosage for 2 days. Conditional media were collected for sAPPα and secretary Aβ assays. Cells were lysed in 6% SDS and assayed for Notch/NICD conversion and APP metabolism. 168/FLJ20551 and Notch/NICD were detected using myc antibody 9E10. APP AICD was detected using APP C-terminus antibody 369. APP βCTFs, intracellular Aβ, and secretary Aβ in conditional media were immunoprecipitated using antibody 4G8 and detected using antibody 6E10. Soluble APPα were detected using 6E10. α-tubulin was used as control.

[2] = test system: mitochondrial membrane potential; test: Mitochondrial membrane potential after 168 expression; format: cell-based
From the text: MCCP: an ionophore to disrupt proton gradient used as a positive control to decrease mitochondrial membrane potential.

APP-AICD(C99) = molecular target: T2, APP-AICD(C99) (Homo sapiens, UniProt P05067); test: Anti-myc IP and anti-HA Western blot in co-transfected 293T cells; format: binding
T2 construct: Deletion mutants of HA-168 and myc-tagged APP-AICD(C99) were co-transfected into 293T cells; myc; expressed in transfected cells; host or cells: 293T cells
From the text: IP-WB the minimal domain of 168 to interact with AICD is 118-264AA. Deletion mutants of HA-168 and myc-tagged APP-AICD(C99) were co-transfected into 293T cells and cell lysates subjected to anti-myc IP and anti-HA WB to detect 168-APP interaction (upper panel). Protein expressions are shown in the middle and lower panels.

APP-AICD (AID) = molecular target: T3, APP-AICD (AID) (Homo sapiens, UniProt P05067); test: Yeast two-hybrid assay with quantitative β-galactosidase activity; format: binding; details: yeast AH109 co-transfected with pGBKT7-AID; ONPG substrate
T3 construct: The intracellular end of human APP was amplified, i.e., AID, was amplified; expressed in transfected cells; host or cells: yeast AH109
From the text: The interaction of AICD-Ga14 activation domain (AD) with 168(264-304) fragment-DNA binding domain (DBD) activates GAL4-driven beta-galactosidase expression in yeast.
The intracellular end of human APP was amplified, i.e., AID, was amplified. In order to completely expose AID, 5 amino acids of Aβ and […] (SEQ ID NO:9) were extended in front of AID. The PCR product was recovered and purified. It was then inserted into protein expression vector pGBKT7 for identification by means of sequencing. The successfully constructed vector is named pGBKT7-AID. Positively identified pGBKT7-AID was transferred into yeast AH109, and then cultured on a SD/-Trp plate. […]
Screening and Identification of Positive Clones: Yeast expression vector pGBKT7 contained the autocrine gene of Trp (tryptophan) and the DNA binding domain of GAL4. pACT2 contained the autocrine gene of Leu (leucine) and the DNA activation structure domain. […] The results were compared and analyzed against information available in GenBank.
Quantitative Analysis of β-galactosidase Activity: Yeast co-transfected positive clones grown on the plate were picked and cultured further in a SD/Leu/-Trp liquid culture medium at 30° C. overnight. […] The solution was centrifuged and the supernatant was taken to measure its absorbance at 420 nm to calculate its β-galactosidase activity. […]

239T cells = test: Apoptosis by annexin V/PI double staining after 168 expression; format: cell-based
Notch = test: Notch/NICD conversion, Western blot; format: cell-based; details: overexpression of 168; NotchΔE-myc transfected N2a cells; ratios of NICD to Notch
From the text: as §1

[3] = test system: N2a cells stably expressing human APP Swedish mutations; test: Aβ40 generation, IP and urea gel; format: cell-based; details: overexpression of 168, 2 days, secreted Aβ in conditional media
Procedure: N2a cells stably expressing human APP Swedish mutations were transfected with 168 for 2 days. Secretary Aβ in conditional media were immunoprecipitated using antibody 4G8 and detected using antibody 6E10. The samples were analyzed using Urea gel, which can differentiate variant Aβ species.

mouse fibroblast cells = test: 168-mediated apoptosis in APP WT and APP/APLP2 DKO cells, annexin V/PI double staining; format: cell-based; details: mouse fibroblast cells transfected with 168
From the text: APP wild type (WT) and APP/APLP2 double knockout (DKO) mouse fibroblast cells were transfected with control (vector) or 168.

293T cells = test: Cytochrome c release from mitochondria, immunoblotting of mitochondria and cytosol; format: cell-based; details: 293T cells transfected with 168
From the text: Mitochrondia and cytosol were isolated from 293T cells transfected with 168 and subjected to immunoblotting with different antibodies: Tubulin serves as a cytosol marker and CoxIV as a mitochondrial marker.

Molecule	caspase 3 cleavage for activation upon apoptotic treatment (N2a cells)	interaction with APP in IP-WB (APP)	sAPPα ([1]; overexpression of 168, conditional media)	Aβ generation ([1]; overexpression of 168, different dosage, 2 days)	mitochondrial membrane potential [2]	interaction with APP-AICD(C99) in cells (APP-AICD(C99); HA-168 deletion mutants and myc-tagged C99 co-transfected into 293T cells)	minimal domain of 168 to interact with AICD (APP-AICD(C99); IP-WB)	intensity of interaction with AID (bait protein) by β-galactosidase activity (APP-AICD (AID))	apoptosis (239T cells)	conversion of Notch to NICD (Notch)	Aβ40 generation [3]	168-induced cell apoptosis in APP/APLP2 DKO cells compared with APP WT cells (mouse fibroblast cells)	cytochrome c release from mitochondria (293T cells)
CN[C@@H]1C[C@H]2O[C@@](C)([C@@H]1OC)n1c3ccccc3c3c4c(c5c6ccccc6n2c5c31)C(=O)NC4 [staurosporine]	cleaved	–	–	–	–	–	–	–	–	–	–	–	–
B1	–	still detected	–	–	–	–	–	–	–	–	–	–	–
B2	–	interacts	slightly increases	inhibits Aβ generation in a dose-dependent manner	decrease	interacts	118-264AA	fairly intense	induces apoptosis	does not affect	reduces Aβ40 generation in a dose-dependent manner	dramatically less	induces cytochrome c release
